Laboratory results: patent US20190023807A1 (CRESCENDO BIOLOGICS, published 2019)

B1: single VH domain antibody 8.1 (VHH)
VHH: QVQLQQWGAGLLKPSETLSLTCAVYGGSFSGYYWSWIRQPPGKGLEWIGEINHSGSTNYNPSLKSRVTISVDTSKNQFSLKLSSVTAADTAVYYCARGPIPATAIPDAFDIWGQGTMVTVSS
notes: human single VH domain (Humabody); not shown: C-terminal His tag
B2: single VH domain antibody 9.1 (VHH)
VHH: QVQLQQWGAGLLKPSETLSLTCAVYGGSFSGHYWSWIRQPPGKGLEWIGDINHSGSTNYNPSLKSRVTISVDTSKNQFSLKLSSVTAADTAVYYCVRDYGDSRSLFDYWGQGTLVTVSS
notes: as for B1
B3: 1.11-6GS-2.1 (bispecific antibody, not shown: small tags and cut ends)
chain: EVQLLESGGGLVQPGGSLRLSCAASGFSFSSYALSWVRQAPGKGLEWVSSIGENNDTTDYADNVKGRFTISRDNSKNTLYLQMNSLRVEDTAVYYCVKDGVHWGQGTLVTVSSGGGGSGGGGSGGGGSGGGGSGGGGSGGGGSEVQLVESGGGVVQPGRSLRLSCAASGFSFSGYGMHWVRQAPGKGLEWVAYISYDGSNKYYADSVKGRFTISRDNSKNTLYLQMNSLRAEDTAVYYCAKDPAWGLRLGESSSYDFDIWGQGTMVTVSS
B4: 1.16-6GS-2.17 (bispecific antibody, not shown: small tags and cut ends)
chain: EVQLLESGGGLVQPGGSLRLSCAASGFSFSSYALSWVRQAPGKGLEWVSSIGENNHTTDYADTVKGRFTISRDNSKNTLYLQMNSLRVEDTAVYYCVKDGVHWGQGTLVTVSSGGGGSGGGGSGGGGSGGGGSGGGGSGGGGSEVQLVESGGGVVQPGRSLRLSCAASGFSFSGYGMHWVRQAPGKGLEWVAYISYDASNKYYADNVKGRFTISRDNSKNTLYLQMNSLRAEDTAVYYCAKDPAWGLRLGESSSYDFDIWGQGTMVTVSS
B5: 1.1-6GS-2.22 (bispecific antibody, not shown: small tags and cut ends)
chain: EVQLLESGGGLVQPGGSLRLSCAASGFSFSSYAMSWVRQAPGKGLEWVSSIGENDGTTDYADSVKGRFTISRDNSKSMLYLQMNSLRVEDTAVYYCVKDGVHWGQGTLVTVSSGGGGSGGGGSGGGGSGGGGSGGGGSGGGGSEVQLVESGGGVVQPGRSLRLSCAASGFSFSGYGTHWVRQAPGKGLEWVAYISYDGSNKYYAAPVKGRFTISRDNSKNTLYLQMNSLRAEDTAVYYCAKDAAWGLRLGESSSYDFDIWGQGTMVTVSS
B6: 1.11-6GS-2.15 (bispecific antibody, not shown: small tags and cut ends)
chain: EVQLLESGGGLVQPGGSLRLSCAASGFSFSSYALSWVRQAPGKGLEWVSSIGENNDTTDYADNVKGRFTISRDNSKNTLYLQMNSLRVEDTAVYYCVKDGVHWGQGTLVTVSSGGGGSGGGGSGGGGSGGGGSGGGGSGGGGSEVQLVESGGGVVQPGRSLRLSCAASGFSFSGYGLHWVRQAPGKGLEWVAYISYDKSNKYYADKVKGRFTISRDNSKNTLYLQMNSLRAEDTAVYYCAKDPAWGLRLGESSSYDFDIWGQGTMVTVSS
B7: 1.18-6GS-2.15 (bispecific antibody, not shown: small tags and cut ends)
chain: EVQLLESGGGLVQPGGSLRLSCAASGFSFSSYALSWVRQAPGKGLEWVSSIGENNATTDYAASVKGRFTISRDNSKNTLYLQMNSLRVEDTAVYYCVKDGVHWGQGTLVTVSSGGGGSGGGGSGGGGSGGGGSGGGGSGGGGSEVQLVESGGGVVQPGRSLRLSCAASGFSFSGYGLHWVRQAPGKGLEWVAYISYDKSNKYYADKVKGRFTISRDNSKNTLYLQMNSLRAEDTAVYYCAKDPAWGLRLGESSSYDFDIWGQGTMVTVSS
B8: 1.18-6GS-2.1 (bispecific antibody, not shown: small tags and cut ends)
chain: EVQLLESGGGLVQPGGSLRLSCAASGFSFSSYALSWVRQAPGKGLEWVSSIGENNATTDYAASVKGRFTISRDNSKNTLYLQMNSLRVEDTAVYYCVKDGVHWGQGTLVTVSSGGGGSGGGGSGGGGSGGGGSGGGGSGGGGSEVQLVESGGGVVQPGRSLRLSCAASGFSFSGYGMHWVRQAPGKGLEWVAYISYDGSNKYYADSVKGRFTISRDNSKNTLYLQMNSLRAEDTAVYYCAKDPAWGLRLGESSSYDFDIWGQGTMVTVSS
B9: 1.16-6GS-2.22 (bispecific antibody, not shown: small tags and cut ends)
chain: EVQLLESGGGLVQPGGSLRLSCAASGFSFSSYALSWVRQAPGKGLEWVSSIGENNHTTDYADTVKGRFTISRDNSKNTLYLQMNSLRVEDTAVYYCVKDGVHWGQGTLVTVSSGGGGSGGGGSGGGGSGGGGSGGGGSGGGGSEVQLVESGGGVVQPGRSLRLSCAASGFSFSGYGTHWVRQAPGKGLEWVAYISYDGSNKYYAAPVKGRFTISRDNSKNTLYLQMNSLRAEDTAVYYCAKDAAWGLRLGESSSYDFDIWGQGTMVTVSS
B10: 1.18-6GS-2.22 (bispecific antibody, not shown: small tags and cut ends)
chain: EVQLLESGGGLVQPGGSLRLSCAASGFSFSSYALSWVRQAPGKGLEWVSSIGENNATTDYAASVKGRFTISRDNSKNTLYLQMNSLRVEDTAVYYCVKDGVHWGQGTLVTVSSGGGGSGGGGSGGGGSGGGGSGGGGSGGGGSEVQLVESGGGVVQPGRSLRLSCAASGFSFSGYGTHWVRQAPGKGLEWVAYISYDGSNKYYAAPVKGRFTISRDNSKNTLYLQMNSLRAEDTAVYYCAKDAAWGLRLGESSSYDFDIWGQGTMVTVSS
B11: 1.11-6GS-2.22 (bispecific antibody, not shown: small tags and cut ends)
chain: EVQLLESGGGLVQPGGSLRLSCAASGFSFSSYALSWVRQAPGKGLEWVSSIGENNDTTDYADNVKGRFTISRDNSKNTLYLQMNSLRVEDTAVYYCVKDGVHWGQGTLVTVSSGGGGSGGGGSGGGGSGGGGSGGGGSGGGGSEVQLVESGGGVVQPGRSLRLSCAASGFSFSGYGTHWVRQAPGKGLEWVAYISYDGSNKYYAAPVKGRFTISRDNSKNTLYLQMNSLRAEDTAVYYCAKDAAWGLRLGESSSYDFDIWGQGTMVTVSS
B12: 1.16-6GS-2.15 (bispecific antibody, not shown: small tags and cut ends)
chain: EVQLLESGGGLVQPGGSLRLSCAASGFSFSSYALSWVRQAPGKGLEWVSSIGENNHTTDYADTVKGRFTISRDNSKNTLYLQMNSLRVEDTAVYYCVKDGVHWGQGTLVTVSSGGGGSGGGGSGGGGSGGGGSGGGGSGGGGSEVQLVESGGGVVQPGRSLRLSCAASGFSFSGYGLHWVRQAPGKGLEWVAYISYDKSNKYYADKVKGRFTISRDNSKNTLYLQMNSLRAEDTAVYYCAKDPAWGLRLGESSSYDFDIWGQGTMVTVSS
B13: 1.16-6GS-2.1 (bispecific antibody, not shown: small tags and cut ends)
chain: EVQLLESGGGLVQPGGSLRLSCAASGFSFSSYALSWVRQAPGKGLEWVSSIGENNHTTDYADTVKGRFTISRDNSKNTLYLQMNSLRVEDTAVYYCVKDGVHWGQGTLVTVSSGGGGSGGGGSGGGGSGGGGSGGGGSGGGGSEVQLVESGGGVVQPGRSLRLSCAASGFSFSGYGMHWVRQAPGKGLEWVAYISYDGSNKYYADSVKGRFTISRDNSKNTLYLQMNSLRAEDTAVYYCAKDPAWGLRLGESSSYDFDIWGQGTMVTVSS
B14: 1.1-6GS-2.1 (bispecific antibody, not shown: small tags and cut ends)
chain: EVQLLESGGGLVQPGGSLRLSCAASGFSFSSYAMSWVRQAPGKGLEWVSSIGENDGTTDYADSVKGRFTISRDNSKSMLYLQMNSLRVEDTAVYYCVKDGVHWGQGTLVTVSSGGGGSGGGGSGGGGSGGGGSGGGGSGGGGSEVQLVESGGGVVQPGRSLRLSCAASGFSFSGYGMHWVRQAPGKGLEWVAYISYDGSNKYYADSVKGRFTISRDNSKNTLYLQMNSLRAEDTAVYYCAKDPAWGLRLGESSSYDFDIWGQGTMVTVSS
B15: 1.1-6GS-2.15 (bispecific antibody, not shown: small tags and cut ends)
chain: EVQLLESGGGLVQPGGSLRLSCAASGFSFSSYAMSWVRQAPGKGLEWVSSIGENDGTTDYADSVKGRFTISRDNSKSMLYLQMNSLRVEDTAVYYCVKDGVHWGQGTLVTVSSGGGGSGGGGSGGGGSGGGGSGGGGSGGGGSEVQLVESGGGVVQPGRSLRLSCAASGFSFSGYGLHWVRQAPGKGLEWVAYISYDKSNKYYADKVKGRFTISRDNSKNTLYLQMNSLRAEDTAVYYCAKDPAWGLRLGESSSYDFDIWGQGTMVTVSS
B16: 1.18-6GS-2.17 (bispecific antibody, not shown: small tags and cut ends)
chain: EVQLLESGGGLVQPGGSLRLSCAASGFSFSSYALSWVRQAPGKGLEWVSSIGENNATTDYAASVKGRFTISRDNSKNTLYLQMNSLRVEDTAVYYCVKDGVHWGQGTLVTVSSGGGGSGGGGSGGGGSGGGGSGGGGSGGGGSEVQLVESGGGVVQPGRSLRLSCAASGFSFSGYGMHWVRQAPGKGLEWVAYISYDASNKYYADNVKGRFTISRDNSKNTLYLQMNSLRAEDTAVYYCAKDPAWGLRLGESSSYDFDIWGQGTMVTVSS
B17: 1.11-6GS-2.17 (bispecific antibody, not shown: small tags and cut ends)
chain: EVQLLESGGGLVQPGGSLRLSCAASGFSFSSYALSWVRQAPGKGLEWVSSIGENNDTTDYADNVKGRFTISRDNSKNTLYLQMNSLRVEDTAVYYCVKDGVHWGQGTLVTVSSGGGGSGGGGSGGGGSGGGGSGGGGSGGGGSEVQLVESGGGVVQPGRSLRLSCAASGFSFSGYGMHWVRQAPGKGLEWVAYISYDASNKYYADNVKGRFTISRDNSKNTLYLQMNSLRAEDTAVYYCAKDPAWGLRLGESSSYDFDIWGQGTMVTVSS
B18: 1.1-6GS-2.17 (bispecific antibody, not shown: small tags and cut ends)
chain: EVQLLESGGGLVQPGGSLRLSCAASGFSFSSYAMSWVRQAPGKGLEWVSSIGENDGTTDYADSVKGRFTISRDNSKSMLYLQMNSLRVEDTAVYYCVKDGVHWGQGTLVTVSSGGGGSGGGGSGGGGSGGGGSGGGGSGGGGSEVQLVESGGGVVQPGRSLRLSCAASGFSFSGYGMHWVRQAPGKGLEWVAYISYDASNKYYADNVKGRFTISRDNSKNTLYLQMNSLRAEDTAVYYCAKDPAWGLRLGESSSYDFDIWGQGTMVTVSS

What was measured:
[1] = molecular target: T1, recombinant human PSMA (R&D, cat. no. 4234-ZN) (human, UniProt Q04609 44-750); experiment: periprep/phage screen, rhPSMA
T1 construct: also called rhPSMA; Recombinant PMSA

[2] = molecular target: human PSMA (prostate specific membrane antigen), full-length, expressed on cells (human, UniProt Q04609 1-750); experiment: cell-based or functional assay
[3] = molecular target: cynomolgus PSMA, full-length, expressed on CHO cells (cynomolgus, UniProt A0A2K5VNZ0 1-750); experiment: cell-based or functional assay

Sequence of human PSMA (prostate specific membrane antigen), full-length, expressed on cells (Q04609 whole entry): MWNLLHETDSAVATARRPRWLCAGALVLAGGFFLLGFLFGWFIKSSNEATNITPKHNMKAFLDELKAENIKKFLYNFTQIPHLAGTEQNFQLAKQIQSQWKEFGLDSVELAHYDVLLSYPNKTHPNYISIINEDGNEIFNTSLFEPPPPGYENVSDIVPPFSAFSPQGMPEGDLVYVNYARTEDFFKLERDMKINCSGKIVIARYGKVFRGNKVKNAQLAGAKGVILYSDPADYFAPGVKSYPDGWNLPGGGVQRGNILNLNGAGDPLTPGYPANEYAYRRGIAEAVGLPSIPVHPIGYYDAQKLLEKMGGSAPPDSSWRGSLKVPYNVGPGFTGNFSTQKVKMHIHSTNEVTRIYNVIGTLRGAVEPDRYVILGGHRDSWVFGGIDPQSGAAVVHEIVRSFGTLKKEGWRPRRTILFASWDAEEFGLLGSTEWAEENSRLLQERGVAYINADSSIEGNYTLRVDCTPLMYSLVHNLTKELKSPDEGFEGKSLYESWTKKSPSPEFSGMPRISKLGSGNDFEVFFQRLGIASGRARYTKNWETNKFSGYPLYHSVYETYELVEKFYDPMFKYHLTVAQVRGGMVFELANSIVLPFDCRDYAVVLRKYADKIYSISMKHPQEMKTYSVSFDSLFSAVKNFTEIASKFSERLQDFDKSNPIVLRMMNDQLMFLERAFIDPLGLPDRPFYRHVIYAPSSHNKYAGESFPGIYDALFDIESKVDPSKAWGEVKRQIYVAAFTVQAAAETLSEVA
T1 sequence (Q04609 44-750 limits assumed): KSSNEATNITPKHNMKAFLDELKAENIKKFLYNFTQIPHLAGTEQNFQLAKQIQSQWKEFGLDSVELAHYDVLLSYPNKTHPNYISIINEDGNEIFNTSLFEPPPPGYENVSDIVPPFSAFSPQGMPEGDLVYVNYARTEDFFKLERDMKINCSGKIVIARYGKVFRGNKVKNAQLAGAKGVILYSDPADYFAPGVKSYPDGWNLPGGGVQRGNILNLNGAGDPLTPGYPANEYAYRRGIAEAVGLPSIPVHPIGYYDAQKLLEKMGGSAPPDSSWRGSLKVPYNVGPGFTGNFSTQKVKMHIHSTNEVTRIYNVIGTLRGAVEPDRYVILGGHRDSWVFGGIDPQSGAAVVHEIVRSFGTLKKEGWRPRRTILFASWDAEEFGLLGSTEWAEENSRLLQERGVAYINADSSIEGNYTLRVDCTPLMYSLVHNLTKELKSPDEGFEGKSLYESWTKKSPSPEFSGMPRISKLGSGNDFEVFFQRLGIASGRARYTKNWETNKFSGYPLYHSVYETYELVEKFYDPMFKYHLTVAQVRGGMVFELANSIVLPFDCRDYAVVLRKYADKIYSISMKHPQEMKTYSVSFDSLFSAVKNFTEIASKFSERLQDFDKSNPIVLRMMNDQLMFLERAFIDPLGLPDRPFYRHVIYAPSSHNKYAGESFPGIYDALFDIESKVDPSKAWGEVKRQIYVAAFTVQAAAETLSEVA

Binder | binding result [1] | His-ZAP cell killing, human PSMA Average EC50 [2] | His-ZAP cell killing, cyno PSMA Average EC50 [3]
B1 | no binding |  | 
B2 | no binding |  | 
B3 |  | 0.017 nM | 0.012 nM
B4 |  | 0.015 nM | 0.011 nM
B5 |  |  | 0.0078 nM
B6 |  |  | 0.009 nM
B7 |  |  | 0.01 nM
B8 |  | 0.0057 nM | 0.0058 nM
B9 |  | 0.02 nM | 0.011 nM
B10 |  | 0.015 nM | 0.014 nM
B11 |  | 0.01 nM | 0.0095 nM
B12 |  |  | 0.011 nM
B13 |  | 0.014 nM | 0.013 nM
B14 |  |  | 0.012 nM
B15 |  |  | 0.0086 nM
B16 |  | 0.012 nM | 0.0056 nM
B17 |  | 0.0079 nM | 0.0081 nM
B18 |  |  | 0.011 nM
